Assay results taken from publication PMC12042792, “Discovery of two novel cutinases from a gut yeast of plastic-eating mealworm for polyester depolymerization” (Applied and Environmental Microbiology, 2025).

Columns and labels:
Test in all cases: purified protein
Assay type in all cases: biochemical, Sakaguchia sp.
purified protein [1] = substrate: CCCCCC(=O)Oc1ccc([N+](=O)[O-])cc1
purified protein [2] = substrate: CCCCCCCCCCCCCCCC(=O)Oc1ccc([N+](=O)[O-])cc1
purified protein [3] = substrate: CCCCCCCC(=O)Oc1ccc([N+](=O)[O-])cc1
purified protein [4] = substrate: CCCCCCCCCCCCCC(=O)Oc1ccc([N+](=O)[O-])cc1
purified protein [5] = substrate: CCCCCCCCCC(=O)Oc1ccc([N+](=O)[O-])cc1
purified protein [6] = substrate: CCCC(=O)Oc1ccc([N+](=O)[O-])cc1
purified protein [7] = substrate: CC(=O)Oc1ccc([N+](=O)[O-])cc1
purified protein [8] = substrate: CCCCCCCCCCCC(=O)Oc1ccc([N+](=O)[O-])cc1
[9] = 50 mM Tris-HCl pH 7.5, optimal temperature (45 °C)
[10] = 50 mM Tris-HCl pH 7.5, optimal temperature (35 °C)

B1: SiCut2 (Sakaguchia sp.) (protein)
chain: TAIGERQLGCAPLELFHAAGTSEVGQGIIGRAYQSALPRAVSGATVTPVIYSTIAEYFTTVRAGAQTMQRQLTSRAAACPNTKFVLSGYSKGALVVHEVKLPAAIQSKVVAVTLFGDPKNGQFGSSVVPINNKACFFSFCNRGDVFCDRGISLAAHLAYATDGSVTTAARNIAECFNA
notes: no tag mentioned; diafiltered culture supernatant
With B1 the Km (purified protein [1]; [9]) was 1.44 ± 1.51 µM, the kcat (purified protein [1]; [9]) was 1.26 ± 0.0175 s⁻¹ and the kcat/Km (purified protein [1]; [9]) was 875000 ± 11700 M⁻¹ s⁻¹. The Km (purified protein [2]; [9]) was 4.01 ± 1.3 µM, the kcat (purified protein [2]; [9]) was 0.603 ± 0.0417 s⁻¹ and the kcat/Km (purified protein [2]; [9]) was 150000 ± 3830 M⁻¹ s⁻¹. The Km (purified protein [3]; [9]) was 0.89 ± 0.12 µM, the kcat (purified protein [3]; [9]) was 2.079 ± 0.0025 s⁻¹ and the kcat/Km (purified protein [3]; [9]) was 2.344e+06 ± 13800 M⁻¹ s⁻¹. The Km (purified protein [4]; [9]) was 4.44 ± 0.5 µM, the kcat (purified protein [4]; [9]) was 0.832 ± 0.0117 s⁻¹ and the kcat/Km (purified protein [4]; [9]) was 187000 ± 10000 M⁻¹ s⁻¹. For the same protein, the Km (purified protein [5]; [9]) was 2.47 ± 0.09 µM, the kcat (purified protein [5]; [9]) was 1.48 ± 0.0342 s⁻¹ and the kcat/Km (purified protein [5]; [9]) was 600700 ± 667 M⁻¹ s⁻¹. The Km (purified protein [6]; [9]) was 2.82 ± 0.58 µM, the kcat (purified protein [6]; [9]) was 1.13 ± 0.066 s⁻¹ and the kcat/Km (purified protein [6]; [9]) was 401000 ± 5000 M⁻¹ s⁻¹. The Km (purified protein [7]; [9]) was 6.18 ± 0.49 µM, the kcat (purified protein [7]; [9]) was 0.665 ± 0.07 s⁻¹ and the kcat/Km (purified protein [7]; [9]) was 108000 ± 11300 M⁻¹ s⁻¹. It also gave a Km (purified protein [8]; [9]) of 2.22 ± 1.9 µM, a kcat (purified protein [8]; [9]) of 0.983 ± 0.035 s⁻¹ and a kcat/Km (purified protein [8]; [9]) of 443000 ± 4330 M⁻¹ s⁻¹.

B2: SiCut1 (Sakaguchia sp.) (protein)
chain: AAIAERQSSACAPLELYHAAGTSESGLGTVGRAFQTALPREVQGATVSPLNYNTNAEYSSTVTAGAQTFQQLLTSRAAACPNTKFVLSGYSKGALVVHKVTLPSAVQSKVVAITVFGDPQAGQFGATTVPINNKACFFSFCNRGDTFCDRGGNFAAHLAYATDGSVTTASRNIAGCYRA
notes: as for B1
For B2, the Km (purified protein [1]; [10]) was 0.66 ± 2.77 µM, the kcat (purified protein [1]; [10]) was 0.8588 ± 0.00717 s⁻¹ and the kcat/Km (purified protein [1]; [10]) was 1.305e+06 ± 1830 M⁻¹ s⁻¹. The Km (purified protein [2]; [10]) was 7.09 ± 0.27 µM, the kcat (purified protein [2]; [10]) was 0.2155 ± 0.002 s⁻¹ and the kcat/Km (purified protein [2]; [10]) was 30300 ± 2170 M⁻¹ s⁻¹. For the same protein, the Km (purified protein [3]; [10]) was 2.01 ± 0.63 µM, the kcat (purified protein [3]; [10]) was 1.002 ± 0.00267 s⁻¹ and the kcat/Km (purified protein [3]; [10]) was 501000 ± 1500 M⁻¹ s⁻¹. The Km (purified protein [4]; [10]) was 3.46 ± 0.02 µM, the kcat (purified protein [4]; [10]) was 0.213 ± 0.00217 s⁻¹ and the kcat/Km (purified protein [4]; [10]) was 61700 ± 1330 M⁻¹ s⁻¹. The Km (purified protein [5]; [10]) was 7.57 ± 0.01 µM, the kcat (purified protein [5]; [10]) was 0.672 ± 0.026 s⁻¹ and the kcat/Km (purified protein [5]; [10]) was 88800 ± 3170 M⁻¹ s⁻¹. The Km (purified protein [6]; [10]) was 1.73 ± 0.99 µM, the kcat (purified protein [6]; [10]) was 0.796 ± 0.00367 s⁻¹ and the kcat/Km (purified protein [6]; [10]) was 459800 ± 2330 M⁻¹ s⁻¹. It also gave a Km (purified protein [7]; [10]) of 9.12 ± 0.04 µM, a kcat (purified protein [7]; [10]) of 0.3212 ± 0.00267 s⁻¹ and a kcat/Km (purified protein [7]; [10]) of 35200 ± 3000 M⁻¹ s⁻¹. It also gave a Km (purified protein [8]; [10]) of 3.21 ± 0.63 µM, a kcat (purified protein [8]; [10]) of 0.7233 ± 0.00283 s⁻¹ and a kcat/Km (purified protein [8]; [10]) of 225000 ± 500 M⁻¹ s⁻¹.
